# From patent US20260028391A1
# Molecular target: fusion glycoprotein of the RSV used in the neutralization assay of Example 1 (respiratory syncytial virus (strain not stated))
# Assay: cell-based or functional assay
row,RSV Neutralization - IC50,Binder
1,6.6 ng/mL,"MPK179-v4 (antibody, V domains shown) VH: QVQLVQSRAEVKKPGESLKISCRASGYSFINYWIGWVRQMPGKGLEWMGIIYPFDSDTKYSPSFEGHVTISADKSINTAYVQWSSLKASDTAIYYCARFTFGIALVAGDVGGEGHAFDIWGQGTLVTVSS VL: DIVMTQSPSSLSASVGDRVTITCRASQTISTYLNWYQQKPGKAPKLLIYAASRLQSGVPSRFSGSGSGTDFTLTISSLQPEDFATYFCQQSYNAPPFTFGPGTKVDIR"
2,1.1 ng/mL,"MPK170 (antibody, V domains shown) VH: QVQLVQSGAEVKKPGESLKISCKGSGYSFINYWIGWVRQMPGKGLEWMGIIYPFDSDTKYSPSFQGHVTISADKSINTAYVQWSSLKASDTAIYYCARFTFGIAVSTDDVSGEGQAFDLWGQGTRVTVSS VL: EIVMMQSPATLSVSPGERATLSCRASQSVAGNLAWYQQRPGQAPRLLIYAGSARATGVPARFSGSGSETEFTLTISSLQSEDFAVYYCHHYSNWPQAFGQGTRLDIK"
3,1 ng/mL,"MPK165 (antibody, V domains shown) VH: EVQLVQSGAEVKKPGESLKISCRASGYSFNNYWVGWVRQVPGKGLEWMGFIYPFDSDTKYSPSFEGHVTISADKSIDTAYLQWSSLRSSDTAIYYCARFTFGIALVAGDVTGGGQAFEVWGQGTLVTVSS VL: EIVMTQSPATLSVSPGERATLSCRASQSVAGKLAWYQQRPGQAPRLIIYAASTRAAGVPARFSGSGSETEFTLTISSLQSEDFAVYYCHHYSNWPQAFGQGTRLDIK"
4,1.3 ng/mL,"MPK168 (antibody, V domains shown) VH: EVQLVQSGAEVKKPGESLKISCQVSGYSFVNYWIGWVRQVPGKGLEWMGLIYPFDSDTQYSPSFQGHVTISADTSITTAYLQWSSLQASDTATYYCARFTFGLALVTAGLTDDGQAFDFWGQGTVVTVSS VL: EIVMMQSPATLSVSPGERATLSCRATESVAGKLAWYQQRPGQTPRLLIYGASARATGVPARFSGSGSETEFTLTISSLQSEDFAVYYCQQYSTWPHAFGQGTRLDIK"
5,1.6 ng/mL,"MPK175 (antibody, V domains shown) VH: QVQLVQSGAEVKKPGESLKISCQASGYSFINYWIGWVRQKPGKGLEWMGIIYPFDSETKYSPSFQGHVTISADRFTNTAYVQWTSLKASDTAIYYCARFTFGLAVVAGGLSDDGQAFDIWGQGTRVTVSS VL: EIVLTQSPATLSVSPGERATLSCRASQSVAANLAWYQQRPGQTPRLLIYGASTRATGVPARFSGSGSETEFTLTISSLQPEDFAVYYCHHYSDWPQAFGQGTRLDIK"
6,1.2 ng/mL,"MPK198 (antibody, V domains shown) VH: EVQLVQSGAEVKKPGESLKISCKGSGYSFINYWIGWVRQMPGKGLEWMGIIYPFDSDTKYSPSFQGHVTISADKSINTAYVQWSSLKASDTAMYYCARFTFGIAVVTDDVSGEGQAFDIWGQGTMVTVSS VL: EIVMMQSPATLSVSPGERATLSCRASQSVAGNLAWYQQRPGQAPRLLIYGASTRATGVPARFSGSGSETEFTLTISSLQSEDFAVYYCQQYSNWPQAFGQGTRLDIK"
7,1 ng/mL,"MPK188 (antibody, V domains shown) VH: EVQLVQSGAEVKKPGESLKISCQASGYSFINYWIGWVRQMPGKGLEWMGIIYPFDSDTNYSPSFQGLVTISADKSINTAYLQWRSLKASDTAMYYCARFTFGIALVAGDVNGEGHAFDIWGQGTVVTVSS VL: EIVMTQSPATLSVSPGESATLSCRASQGVAGNLAWYQQRPGQAPRLLIYGTSTRATGVPARFSGSGSETEFTLTISSLQSEDFAVYYCHHYSNWPQAFGQGTRLDIK"
8,1.2 ng/mL,"MPK186 (antibody, V domains shown) VH: QVQLVQSGAEVKKPGESLKISCQGSGYSFINYWIGWVRQMPGKGLEWMGIIYPFDSETKYSPSFQGHVTISADKSINTAYVQWSSLKASDTAMYYCARFTFGIAVVTDDVYGEAQGFDIWGQGTMVTVSS VL: DIVMTQTPATLSVSPGERATLSCRASQSVDGNLAWYQQRPGQAPRLLIYGASTRATGVPARFSGSGSETEFTLTISSLQSEDFAVYYCQHYSNWPQAFGQGTRLDIK"
9,1 ng/mL,"MPK171-v2 (antibody, V domains shown) VH: QVQLVQSGAEVKKPGESLKISCKGSGYSFINYWIGWVRQMPGKGLEWMGIIYPFDSDTKYSPSFQGHVTISADKSINTAYVQWSSLKASDTAMYYCARFTFGIAVVTDDVSGEGHAFDIWGQGTMVTVSS VL: QSVLTQSPATLSVSPGERATLSCRASQSVAGNLAWYQQRPGQAPRLLIYGASTRATGVPARFSGSGSETEFTLTISSLQSEDFAVYYCQQYSNWPQAFGQGTRLDIK"
10,1.2 ng/mL,"MPK189 (antibody, V domains shown) VH: QVQLVQSGAEVKKPGESLKISCKGSGYSFINYWIGWVRQMPGKGLEWMGIIYPFDSDTKYSPSFQGHVTISADKSINTAYVQWSSLKASDTAMYYCARFTFGIAVVTDDVSDEGHAFDIWGQGTMVTVSS VL: EIVMMQSPATLSVSPGERATLSCRASQSVAGNLAWYQQRPGQAPRLLIYGASTRATGVPARFSGSGSETEFTLTISSLQSEDFAVYYCQQYSNWPQAFGQGTRLDIK"
11,1 ng/mL,"MPK178 (antibody, V domains shown) VH: EVQLVQSGAEVKKPGESLKISCRASGYSFVNYWIGWVRQVPGKGLEWMGFIYPFDSDTQYSPSFQGHVTISADKSINTAYLQWSSLRASDTAIYYCARFTFGIALVAGDVTGGGQAFEVWGQGTLVSVSS VL: DIVMTQSPVTLSVSPGERATLSCRASQSVAGNLAWYQQRPGQAPRLLIYAASTRATGVPARFSGSGSETEFTLTISSLQSEDFAVYYCHHYSNWPQAFGQGTRLDIK"
12,2 ng/mL,"MPK203 (antibody, V domains shown) VH: EVQLVQSGPQVKKPGAAVKVSCKASGFTFTDTTVNWVRQTRGQRLEWMGWIAVGSGTTNYAQKFRDRVTISRDTSTDTAYMELGGLTHDDTAVYYCTTEASRTWFVQTSPFVGFDPWGQGTLVTVSS VL: EIVLTQSPGTLSLSPGERATLSCRASQSVSSSYFAWYQQKPGQTPRVLIYGASNRAPDIPDRFSGSGSGTDFILTISRLEPEDFAIYYCQHYGSSPTFGQGTKVEIK"
13,10.2 ng/mL,"MPK173 (antibody, V domains shown) VH: QVQLVQSGAEVRKPGASVKVSCRASGYTFSNFGITWVRQAPGQGLEWMGWISAYNGNTKSAQKFQDRVTMTTDTTTSTAYMELRSLRSDDTAVYYCARDTPSSDGAALLDYWGQGTLVTVSS VL: DIVMTQTPLSLPVTLGQPASISCRSSQSLVYSDGNTYLSWFQQRPGQSPRRLIYKVSNRDSGVPDRFSGSGSGTYFTLKINRVEAEDVGVYYCMQSKYWLTFGQGTKVEIK"
14,1.5 ng/mL,"MPK180 (antibody, V domains shown) VH: QVQLVQSGAEVKKPGESLRISCKASGYSFASYWIGWVRQKPGKGPEWMGIIFPNDSDTEYSPSFEGQVSISADKSTSTVHLQWGSLKASDTAVYYCGRMYYLGALETWGQGTMVTVSS VL: AIRMTQSPSSLSASVGDRVTIVCQASHDISNFLNWYQQRPGQAPKLLIYDASFLETGVPSRFSGSGSGTYFTLTISSLQPEDFATYYCQRYDNRFFTFGPGTKVDIK"
15,9.1 ng/mL,"MPK187 (antibody, V domains shown) VH: QVQLVQSGAEVKKPGASVKVSCKTSGYYFNDYFIHWVRHAPGQGLEWMGWVNPLSGATVYAQKFQGWVTLTRDTSINTAYMELTRLTSNDTAMYYCATGALFWTGPTYWGQGTPVTVSA VL: EIVLTQSPATLSLFPGERATLSCRTSQFVSNNLAWYQQRPGQAPRLLIYDASSRASGTPGRFSASGSGTDFTLTVSSLETEDFAIYYCQHRSNWPPGITFGPGTRVDIR"
16,14.7 ng/mL,"MPK197 (antibody, V domains shown) VH: QVQLVQSGAEVKKPGASVKVSCKTSGYYFNDYFIHWVRHAPGQGLEWMGWVNPLSGATVYAQKFQGWVTLTRDTSINTAYMELTRLTSNDTALYYCATGALFWTGPTYWGQGTPVTVSA VL: EIVMMQSPATLSLSPGERATLSCRASQSISNNLAWYQQKTGQAPRLLIYDASSRASGTPGRFSASGSGTDFTLTVSSLETEDFAIYYCQHRSNWPPGITFGPGTRVDVR"
17,1.4 ng/mL,"MPK163 (antibody, V domains shown) VH: EVQLVQSGAEVKKPGESLKMSCKTSGYSFRSYWIAWVRQRPGKGLEWMGIIWPGDSDVRYGPSFQGQVTISADRSTNTAYLQWSSLKASDTAIYWCARQNYDFWSGHSLGTGADYYYGMDVWGQGTTVTVSS VL: SSELTQPPSASGTPGQRVTISCSGSSSNIGRNIVHWYQHVPGTAPKLLIYNNDERPSGVPDRFSGSKSGTSASLAISGLQSEDEADYYCTVWDDSLNGGVFGGGTKVTVL"
18,2.6 ng/mL,"MPK194-v2 (antibody, V domains shown) VH: QVQLVESGGGVVQPGRSLRLSCVASGFTFSNYPLHWVRQAPGKGLQWVAVISYDGSENYYADSVKGRFTISRDNSKSTLYLQMNSLRPEDTAIYYCARSKVAGGSYYFDYWGQGTLVPVSS VL: SYELTQPPSVSVAPGQAARVSCGGNNIGSQYVQWYQQKPGQAPVLVIYDDDDRPSGIPERFSGSNSGSTATLTISRVEAGDEADYYCQVWDKSNHVVVFGGGTKLTVL"
19,2.8 ng/mL,"MPK161-v1 (antibody, V domains shown) VH: EVQLVQSGVEAKKPGESLKISCRASGYSFVNFWIGWVRQVPGKGLEWMGFIYPFDSDTKYGPSFEGHVIISADKSTNTAYLEWRSLRASDSAMYYCARFTFGIALVAGDVTGGGQAFEVWGQGTLVSVSS VL: AIWMTQSPSTLSASVGDRVTVTCRASLSIGTWLAWYQHKPGKAPKFLIYKASSLESGVPSRFSGSGSGTEFTLTISSLQPDDFATYYCQQYDSYPFTFGGGTKVEIK"
20,1.1 ng/mL,"MPK161-v2 (antibody, V domains shown) VH: EVQLVQSGVEAKKPGESLKISCRASGYSFVNFWIGWVRQVPGKGLEWMGFIYPFDSDTKYGPSFEGHVIISADKSTNTAYLEWRSLRASDSAMYYCARFTFGIALVAGDVTGGGQAFEVWGQGTLVSVSS VL: EIVMMQSPATLSVSPGDRATLSCRASQSVAGNLAWYQQRPGQAPRLLIYAASTRATGVPARFSGSGSETEFTLTISSLQSEDFAVYYCHHYSNWPQAFGQGTRLDIK"
21,4.2 ng/mL,"MPK176 (antibody, V domains shown) VH: QVQLVQSGAEVKKPGASVRVSCKASGYTLTAYGISWVRQAPGQGLEWMGWISPKHGNTHYAQRFQGRVTMTTDTSTSTAYMELRSLRPDDTAVYFCAREGVDIMAVPWYFDYWGQGTLVAVSS VL: SYELTQPPSVSVAPGQTARISCGGNNIGSKSVHWYQQKPGQAPVVVVYDDSDRPSGIPERFSGSNSGNTATLTISGVEAGDEADYFCQVWDSATDHWVFGGGTKLTVL"
